# Patent US9599627B2, “NMR methods for monitoring blood clot formation” (T2 Biosystems, Inc., priority 2011, dated 2017)
# B1: abciximab (antibody, chains of the INN, looked up, V domains shown)
# VH: EVQLQQSGTVLARPGASVKMSCEASGYTFTNYWMHWVKQRPGQGLEWIGAIYPGNSDTSYIQKFKGKAKLTAVTSTTSVYMELSSLTNEDSAVYYCTLYDGYYVFAYWGQGTLVTVSA
# VL: EIVLTQSPVTLSVTPGDSVSLSCRASRDISNNLHWFQQTSHESPRLLIKYASQSMSGIPSRFSGSGSGTDFTLSINSVETEDFGMYFCQQTNSWPYTFGGGTKLEIK
# modifications: Fab
# B2: Cathflo®: recombinant alteplase manufactured by Genentech (protein, UniProt P00750 36-562, looked up)
# Tissue-type plasminogen …: SYQVICRDEKTQMIYQQHQSWLRPVLRSNRVEYCWCNSGRAQCHSVPVKSCSEPRCFNGGTCQQALYFSDFVCQCPEGFAGKCCEIDTRATCYEDQGISYRGTWSTAESGAECTNWNSSALAQKPYSGRRPDAIRLGLGNHNYCRNPDRDSKPWCYVFKAGKYSSEFCSTPACSEGNSDCYFGNGSAYRGTHSLTESGASCLPWNSMILIGKVYTAQNPSAQALGLGKHNYCRNPDGDAKPWCHVLKNRRLTWEYCDVPSCSTCGLRQYSQPQFRIKGGLFADIASHPWQAAIFAKHRRSPGERFLCGGILISSCWILSAAHCFQERFPPHHLTVILGRTYRVVPGEEEQKFEVEKYIVHKEFDDDTYDNDIALLQLKSDSSRCAQESSVVRTVCLPPADLQLPDWTECELSGYGKHEALSPFYSERLKEAHVRLYPSSRCTSQHLLNRTVTDNMLCAGDTRSGGPQANLHDACQGDSGGPLVCLNDGRMTLVGIISWGLGCGQKDVPGVYTKVTNYLDWIRDNMRP
# modifications: alteplase
# notes: recombinant alteplase manufactured by Genentech
# B3: tissue plasminogen activator (protein, UniProt P00750 36-562, looked up)
# Tissue-type plasminogen …: B2 Tissue-type plasminogen …
# notes: cleaves fibrin as it forms
# Tests used:
# whole blood sample = assay: TEG clot strength (MA) of whole blood samples containing abciximab; format: cell-based, human; conditions: patient sample 29494
# Procedure: The TEG Hemostasis Analyzer provides quantitative and qualitative measurements of the physical properties of a clot (Samara et al., Thromb. Res. 115:89-94, 2005). In the present example, the maximum amplitude (MA) and the coagulation time (R) were measured for the thrombin generated clot sample. MA is an indicator of the viscoelasticity of clot formation or clot strength and is dependent on platelet aggregation and fibrin formation and polymerization. R is the period of time of latency until initial fibrin formation and has been correlated with the velocity of thrombin generation.
# The clotting of a whole blood sample was perturbed using the antithrombotic agent abciximab (ReoPro®). Abciximab is the Fab fragment of a human-murine monoclonal antibody that binds to the Ith/IIIa receptor of human platelets and inhibits platelet aggregation. Abciximab serves to inhibit the retraction of a clot during the clotting process.
# Samples containing abciximab were prepared according to the following procedure and referenced in the application and Figures by a number corresponding to the concentration of abciximab in units of μg/mL.
# 1. Blood was drawn from normal donors into six citrate tubes. Normal donors must not have taken aspirin or any anti-platelet drug in the past two weeks.
# 2. The six tubes of blood were pooled and mixed gently by inversion eight to ten times. Samples were used within two hours of collection.
# 3. A abciximab solution (10 mg/5 mL) was diluted at a ratio of 1:4 using saline as a diluent to form “solution 1.”
# 4. The blood was spiked with solution 1 and saline according to Table 5
# 5. […]
# In a second experiment, five aliquots of patient sample 29494 were prepared with different concentrations (0, 2, 4, 8, and 0 μg/mL) of abciximab prior to initiation of the clotting process. The T2 relaxations times for the samples were measured in series, with each set of measurements lasting approximately 50 min. […] The corresponding TEG-determined MA values for these samples was 60.7, 61.4, 30.4, and 22.0, respectively.
# human platelets = assay: T2 relaxation 3D plots of clotting whole blood containing abciximab; format: cell-based
# Procedure: T2 relaxation rate data was collected from CK blood samples drawn from healthy patients. For each sample, a series of T2 decay curves were measured over a period of 50 minutes. The decay curves were each processed using an inverse Laplace transform (ILT CONTIN) to provide an array of curves showing T2 intensity as a function of T2 time. […] FIG. 20 illustrates the 3D data sets for patient samples 29328 and 29350 collected on a Bruker minispec. […] At a time between 5 minutes and 30 minutes, the single water population diverged into two significant water populations. These two water populations correspond to the two components of the clot, i.e., the retracted clot and the serum surrounding the retracted clot. […] For some samples these two peaks were not entirely resolved. […]
# In a first experiment, four aliquots of patient sample 29488 were prepared with different concentrations of abciximab (0, 2, 4, and 8 μg/mL) prior to initiation of the clotting process. The T2 relaxation times for the four samples were measuring over the course of clot formation and the corresponding 3D plots were determined using the technique described in Example 13. […] This physical change is evidenced and quantified in the corresponding 3D plots (FIG. 21), showing fast exchange of water within the uniform sample at the highest concentration of abciximab.
# fibrin = assay: Simulated fibrinolysis in healthy patient blood, T2Coagulation T2B versus TEG LY30; format: cell-based, human; conditions: kaolin runs
# Procedure: Five different healthy patient samples were used to test whether T2Coagulation was sensitive to fibrinolysis. Addition of tissue plasminogen activator (TPA) was used to simulate fibrinolysis by adding it at two levels to healthy patient blood. TPA cleaves fibrin as it forms. It was observed that fibrinolysis can be detected within 10 minutes on T2Coagulation, which is less than half the time required for detection on TEG. For all five patients there was a clear difference between healthy and fibrinolytic samples.
# There are several potential features that can be used for this correlation. Three that were investigated were the difference between (i) the minimum and maximum T2B values (FIG. 13), (ii) the average of the T2B values over the final 25 minutes of the T2B curves, and (iii) the T2B values at 10 minutes. All had correlations with R^2 values between 0.72 and 0.79. The correlation plots show a higher sensitivity of T2Coagulation for fibrinolysis than TEG. This can be seen by the groupings for the different levels of fibrinolysis in FIG. 13. The healthy patient samples are circled with the solid line. […] The T2Coagulation T2B term can be detected in as little as 10 minutes, which is much faster than the TEG LY30 term can be detected, indicating the utility of the T2Coagulation signal for more rapid measurement of fibrinolysis.
# whole blood fibrinolysis = assay: T2MR whole blood fibrinolysis with spiked TPA; format: cell-based, human; conditions: TPA 100 U/mL, blood from a healthy donor
# Procedure: The T2MR surface is also sensitive to whole blood fibrinolysis. To assess this, healthy donor samples were spiked with tissue plasminogen activator (TPA).
# TPA was added at 100 U/mL to blood from a healthy donor. In the absence of TPA (see FIG. 27a) two stable peaks form at the expected clotting time. With 100 U/mL of TPA (see FIG. 27b) the clot forms at the expected time, but proves to be unstable after 20-30 minutes. Both the instability and the distance between the final T2 peaks indicate sensitivity to fibrinolysis induced by the presence of TPA.
# The T2MR effect on fibrinolysis was expressed in AU values (arbitrary units; see FIG. 27c) obtained by calculating the difference between the maximum and minimum T2 value observed for the clot signal (or T2B) in the T2 time curve.
# Fibrinolysis was monitored by T2 magnetic resonance (T2MR) in five patient blood samples with and without the addition of TPA (100 U/mL) (FIG. 27c). […] All other samples required addition of TPA to induce fibrinolysis, as confirmed by the reference method.
molecule,measurement,setting,value
B1,TEG-determined MA value,whole blood sample; abciximab 2 μg/mL,61.4
same,TEG-determined MA value,whole blood sample; abciximab 4 μg/mL,30.4
same,TEG-determined MA value,whole blood sample; abciximab 8 μg/mL,22.0
same,effect on clot associated T2 signal intensity,"human platelets; 8 μg/mL Reopro, T2reader, versus native sample",reduces the signal intensity of the clot associated signal
same,phases (retracted clot and serum water populations) visible within the clot,"human platelets; highest concentration of abciximab (8 μg/mL), patient sample 29488, Bruker minispec",no longer two phases visible within the clot
B2,degree of fibrinolysis of samples,fibrin; 60 ng/mL Cathflo in healthy patient blood,partially fibrinolytic
same,degree of fibrinolysis of samples,fibrin; 118 ng/mL Cathflo in healthy patient blood,fully fibrinolytic
B3,time after which the clot proves to be unstable,whole blood fibrinolysis,20 to 30 min
